Assay results taken from doi:10.1101/748145 (bioRxiv, 2019).
Substitutions are numbered along the chain they refer to. Numbers in names are those of the source.

B1: LetB periplasmic portion (residues 43-877) (domain or fragment, E. coli, UniProt P76272 43-877, looked up)
chain: QDRGNTVTIDFMSADGIVPGRTPVRYQGVEVGTVQDISLSDDLRKIEVKVSIKSDMKDALREETQFWLVTPKASLAGVSGLDALVGGNYIGMMPGKGKEQDHFVALDTQPKYRLDNGDLMIHLQAPDLGSLNSGSLVYFRKIPVGKVYDYAINPNKQGVVIDVLIERRFTDLVKKGSRFWNVSGVDANVSISGAKVKLESLAALVNGAIAFDSPEESKPAEAEDTFGLYEDLAHSQRGVIIKLELPSGAGLTADSTPLMYQGLEVGQLTKLDLNPGGKVTGEMTVDPSVVTLLRENTRIELRNPKLSLSDANLSALLTGKTFELVPGDGEPRKEFVVVPGEKALLHEPDVLTLTLTAPESYGIDAGQPLILHGVQVGQVIDRKLTSKGVTFTVAIEPQHRELVKGDSKFVVNSRVDVKVGLDGVEFLGASASEWINGGIRILPGDKGEMKASYPLYANLEKALENSLSDLPTTTVSLSAETLPDVQAGSVVLYRKFEVGEVITVRPRANAFDIDLHIKPEYRNLLTSNSVFWAEGGAKVQLNGSGLTVQASPLSRALKGAISFDNLSGASASQRKGDKRILYASETAARAVGGQITLHAFDAGKLAVGMPIRYLGIDIGQIQTLDLITARNEVQAKAVLYPEYVQTFARGGTRFSVVTPQISAAGVEHLDTILQPYINVEPGRGNPRRDFELQEATITDSRYLDGLSIIVEAPEAGSLGIGTPVLFRGLEVGTVTGMTLGTLSDRVMIAMRISKRYQHLVRNNSVFWLASGYSLDFGLTGGVVKTGTFNQFIRGGIAFATPPGTPLAPKAQEGKHFLLQESEPKEWREWGTALPK
B2: LetB four-ring truncation mutant (rings 2-4 deleted), TM helix removed (domain or fragment)
chain: QDRGNTVTIDFMSADGIVPGRTPVRYQGVEVGTVQDISLSDDLRKIEVKVSIKSDMKDALREETQFWLVTPKASLAGVSGLDALVGGNYIGMMPGKGKEQDHFVALDTQPKYRLDNGNLEKALENSLSDLPTTTVSLSAETLPDVQAGSVVLYRKFEVGEVITVRPRANAFDIDLHIKPEYRNLLTSNSVFWAEGGAKVQLNGSGLTVQASPLSRALKGAISFDNLSGASASQRKGDKRILYASETAARAVGGQITLHAFDAGKLAVGMPIRYLGIDIGQIQTLDLITARNEVQAKAVLYPEYVQTFARGGTRFSVVTPQISAAGVEHLDTILQPYINVEPGRGNPRRDFELQEATITDSRYLDGLSIIVEAPEAGSLGIGTPVLFRGLEVGTVTGMTLGTLSDRVMIAMRISKRYQHLVRNNSVFWLASGYSLDFGLTGGVVKTGTFNQFIRGGIAFATPPGTPLAPKAQEGKHFLLQESEPKEWREWGTALPK
B3: LetB six-ring truncation mutant (ring 6 deleted), TM helix removed (domain or fragment)
chain: QDRGNTVTIDFMSADGIVPGRTPVRYQGVEVGTVQDISLSDDLRKIEVKVSIKSDMKDALREETQFWLVTPKASLAGVSGLDALVGGNYIGMMPGKGKEQDHFVALDTQPKYRLDNGDLMIHLQAPDLGSLNSGSLVYFRKIPVGKVYDYAINPNKQGVVIDVLIERRFTDLVKKGSRFWNVSGVDANVSISGAKVKLESLAALVNGAIAFDSPEESKPAEAEDTFGLYEDLAHSQRGVIIKLELPSGAGLTADSTPLMYQGLEVGQLTKLDLNPGGKVTGEMTVDPSVVTLLRENTRIELRNPKLSLSDANLSALLTGKTFELVPGDGEPRKEFVVVPGEKALLHEPDVLTLTLTAPESYGIDAGQPLILHGVQVGQVIDRKLTSKGVTFTVAIEPQHRELVKGDSKFVVNSRVDVKVGLDGVEFLGASASEWINGGIRILPGDKGEMKASYPLYANLEKALENSLSDLPTTTVSLSAETLPDVQAGSVVLYRKFEVGEVITVRPRANAFDIDLHIKPEYRNLLTSNSVFWAEGGAKVQLNGSGLTVQASPLSRALKGAISFDNLSGASASQRKGDKRILYASETAARAVTITDSRYLDGLSIIVEAPEAGSLGIGTPVLFRGLEVGTVTGMTLGTLSDRVMIAMRISKRYQHLVRNNSVFWLASGYSLDFGLTGGVVKTGTFNQFIRGGIAFATPPGTPLAPKAQEGKHFLLQESEPKEWREWGTALPK
B4: LetB three-ring truncation mutant (rings 2-5 deleted), TM helix removed (domain or fragment)
chain: QDRGNTVTIDFMSADGIVPGRTPVRYQGVEVGTVQDISLSDDLRKIEVKVSIKSDMKDALREETQFWLVTPKASLAGVSGLDALVGGNYIGMMPGKGKEQDHFVALDTQPKYRLDNGSETAARAVGGQITLHAFDAGKLAVGMPIRYLGIDIGQIQTLDLITARNEVQAKAVLYPEYVQTFARGGTRFSVVTPQISAAGVEHLDTILQPYINVEPGRGNPRRDFELQEATITDSRYLDGLSIIVEAPEAGSLGIGTPVLFRGLEVGTVTGMTLGTLSDRVMIAMRISKRYQHLVRNNSVFWLASGYSLDFGLTGGVVKTGTFNQFIRGGIAFATPPGTPLAPKAQEGKHFLLQESEPKEWREWGTALPK
B5: LetB L243N (periplasmic domain) (domain or fragment, E. coli, UniProt P76272 43-877, looked up)
chain: B1 chain with L201N
B6: LetB L359N (periplasmic domain) (domain or fragment, E. coli, UniProt P76272 43-877, looked up)
chain: B1 chain with L317N
B7: LetB L246N (periplasmic domain) (domain or fragment, E. coli, UniProt P76272 43-877, looked up)
chain: B1 chain with L204N
B8: LetB V247N (periplasmic domain) (domain or fragment, E. coli, UniProt P76272 43-877, looked up)
chain: B1 chain with V205N
B9: LetB L355N (periplasmic domain) (domain or fragment, E. coli, UniProt P76272 43-877, looked up)
chain: B1 chain with L313N
B10: LetB L358N (periplasmic domain) (domain or fragment, E. coli, UniProt P76272 43-877, looked up)
chain: B1 chain with L316N
B11: LetB five-ring truncation mutant (rings 5 and 6 deleted), TM helix removed (domain or fragment)
chain: QDRGNTVTIDFMSADGIVPGRTPVRYQGVEVGTVQDISLSDDLRKIEVKVSIKSDMKDALREETQFWLVTPKASLAGVSGLDALVGGNYIGMMPGKGKEQDHFVALDTQPKYRLDNGDLMIHLQAPDLGSLNSGSLVYFRKIPVGKVYDYAINPNKQGVVIDVLIERRFTDLVKKGSRFWNVSGVDANVSISGAKVKLESLAALVNGAIAFDSPEESKPAEAEDTFGLYEDLAHSQRGVIIKLELPSGAGLTADSTPLMYQGLEVGQLTKLDLNPGGKVTGEMTVDPSVVTLLRENTRIELRNPKLSLSDANLSALLTGKTFELVPGDGEPRKEFVVVPGEKALLHEPDVLTLTLTAPESYGIDAGQPLILHGVQVGQVIDRKLTSKGVTFTVAIEPQHRELVKGDSKFVVNSRVDVKVGLDGVEFLGASASEWINGGIRILPGDKGEMKASYPLYANLEKALENSLSDLPTTITDSRYLDGLSIIVEAPEAGSLGIGTPVLFRGLEVGTVTGMTLGTLSDRVMIAMRISKRYQHLVRNNSVFWLASGYSLDFGLTGGVVKTGTFNQFIRGGIAFATPPGTPLAPKAQEGKHFLLQESEPKEWREWGTALPK
B12: LetB two-ring truncation mutant (rings 2-6 deleted), TM helix removed (domain or fragment)
chain: QDRGNTVTIDFMSADGIVPGRTPVRYQGVEVGTVQDISLSDDLRKIEVKVSIKSDMKDALREETQFWLVTPKASLAGVSGLDALVGGNYIGMMPGKGKEQDHFVALDTQPKYRLDNGDGLSIIVEAPEAGSLGIGTPVLFRGLEVGTVTGMTLGTLSDRVMIAMRISKRYQHLVRNNSVFWLASGYSLDFGLTGGVVKTGTFNQFIRGGIAFATPPGTPLAPKAQEGKHFLLQESEPKEWREWGTALPK

Biological target: the molecule itself
Test: cryo-EM structure

Protein | stoichiometry N
B1 | 6

Biological target: the molecule itself
Test: negative stain EM

Protein | stoichiometry N
B2 | 6
B3 | 6
B4 | 6
B5 | 6
B6 | 6
B7 | 6
B8 | 6
B9 | 6
B10 | 6
B11 | 6
B12 | 6
